Experimental findings from patent publication US20050042720A1, “Novel promiscuous G alpha protein mutants and their use” (7TM Pharma A/S, priority 2003, published 2005) are described below.

The target of the assay is Gq-coupled receptors. Briefly: cell-based or functional assay.

B1: GαqG66D, P21279 1-359 (protein)
chain: MTLESIMACCLSEEAKEARRINDEIERHVRRDKRDARRELKLLLLGTGESGKSTFIKQMRIIHGSDYSDEDKRGFTKLVYQNIFTAMQAMIRAMDTLKIPYKYEHNKAHAQLVREVDVEKVSAFENPYVDAIKSLWNDPGIQECYDRRREYQLSDSTKYYLNDLDRVADPSYLPTQQDVLRVRVPTTGIIEYPFDLQSVIFRMVDVGGQRSERRKWIHCFENVTSIMFLVALSEYDQVLVESDNENRMEESKALFRTIITYPWFQNSSVILFLNKKDLLEEKIMYSHLVDYFPEYDGPQRDAQAAREFILKMFVDLNPDSDKIIYSHFTCATDTENIRFVFAAVKDTILQLNLKEYNLV
modifications: not fully specified
B1: the decrease in IP1 accumulation turned out to be 20%.
